The target in the test is RTP1S_C2-Strep (TM domain deletion mutant of RTP1S, 1-176 amino acids, with a Strep-tag at the C terminus) (mouse). In words: SEC-MALS; OH-Pak SB-804HQ column, 100 μl of 0.3 mg/ml, 20 mM phosphate buffer pH 8.0, 100 mM NaCl. (SEC sorts molecules by how far they enter the pores of the column.)

In the case of “RTP1S_C2-Strep (TM domain deletion mutant of RTP1S, 1-176 amino acids, with a Strep-tag at the C terminus) (domain or fragment)”, the stoichiometry N (as a rule, the number of molecules, sites or subunits per partner or assembly) was 2.

Source of the values: publication PMC6779431.
